Test results published in patent publication US20250154277A1 (CONCEPT TO MEDICINE BIOTECH, published 2025).
“And” between values parts separate entries of the source, which are not always exact repeats. Identical values can stand only once. Like-named read-outs stand apart in the source and are kept apart here.

T1: human 5T4 expressed on cells (human, UniProt Q13641 32-420)
T1 construct: whole, on cells; also called CHOK1-hu5T4; CHO-K1-expressing human 5T4
T1 sequence (looked up): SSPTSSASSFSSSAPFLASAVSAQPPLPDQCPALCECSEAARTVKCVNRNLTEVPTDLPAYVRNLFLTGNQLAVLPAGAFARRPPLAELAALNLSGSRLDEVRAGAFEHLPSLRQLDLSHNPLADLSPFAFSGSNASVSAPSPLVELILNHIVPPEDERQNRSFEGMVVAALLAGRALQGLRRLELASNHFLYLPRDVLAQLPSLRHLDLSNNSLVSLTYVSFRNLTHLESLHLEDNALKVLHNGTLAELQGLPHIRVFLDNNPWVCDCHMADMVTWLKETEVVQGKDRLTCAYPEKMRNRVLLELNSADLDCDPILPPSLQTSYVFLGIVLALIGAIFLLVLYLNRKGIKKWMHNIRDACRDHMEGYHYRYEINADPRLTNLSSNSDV

T2: human 5T4-His protein (human, UniProt Q13641 32-355)
T2 construct: also called recombinant 5T4 protein (human 5T4-his tag); human 5T4 protein; not shown: His tag
T2 sequence (looked up): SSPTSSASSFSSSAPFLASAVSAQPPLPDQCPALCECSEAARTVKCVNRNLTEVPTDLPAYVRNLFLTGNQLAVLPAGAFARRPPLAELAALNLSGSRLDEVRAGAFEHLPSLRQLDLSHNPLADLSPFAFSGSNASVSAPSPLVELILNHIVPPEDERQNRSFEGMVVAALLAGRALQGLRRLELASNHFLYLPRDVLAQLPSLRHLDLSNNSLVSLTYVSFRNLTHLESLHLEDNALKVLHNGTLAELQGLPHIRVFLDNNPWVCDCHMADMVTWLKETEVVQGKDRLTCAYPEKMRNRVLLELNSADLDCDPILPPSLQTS

T3: cynomolgus 5T4 protein (cynomolgus monkey, UniProt Q4R8Y9 35-355, limits assumed)
T3 construct: Coated protein in ELISA; the screening step names a cyno 5T4-His protein; also called cyno 5T4; recombinant cyno 5T4-His protein
T3 sequence (looked up): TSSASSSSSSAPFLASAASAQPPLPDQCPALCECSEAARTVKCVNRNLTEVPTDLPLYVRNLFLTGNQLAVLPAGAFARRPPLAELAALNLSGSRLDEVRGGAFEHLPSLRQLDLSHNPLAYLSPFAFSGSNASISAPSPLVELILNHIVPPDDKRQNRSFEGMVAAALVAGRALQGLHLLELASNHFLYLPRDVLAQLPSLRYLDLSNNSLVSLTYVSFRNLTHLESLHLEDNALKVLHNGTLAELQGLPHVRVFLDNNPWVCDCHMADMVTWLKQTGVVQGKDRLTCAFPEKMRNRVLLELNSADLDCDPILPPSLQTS

B1: 393E9 chimeric antibody (antibody, V domains shown)
VH: EVKLVESGGGLVQPGGSLSLSCAASGFTFTDYYMSWVRQPPGKALEWLGFIRNKGNGYTTENSASVKGRFTISRDNSQSILYLQMNALRAEDSATYYCARYRGNPHYAMDYWGQGTSVTVSS
VL: DIVLTQFPASLAVSLGQRATISCRASESVEFYGTSFLQWYQQKPGQPPKLLIYGASNVESGVPARFSGSGSGTDFSLSIHPVEEDDIAMYFCQQSRKVPSTFGGGTKLEIK
notes: chimeric mAb
B2: 24F10 chimeric antibody (antibody, V domains shown)
VH: EVQLVESGGGLVKPGGSLKLSCAASGFTFSDYGMHWVRQAPEKGLEWVAYISSGTSTIYYTDTVKGRFTISRDNAKNTLFLQMTSLRSEDTAMYYCARGGDGYYRSTMDYWGQGISVTVSS
VL: DIVLTQSPASLAVSLGQRATISCRASQSVSSSSYSYMHWYQQKPGQPPKLLIKSASNLASGVPARFSGSGSGTDFTLNIHPVEEEDSATYYCQHSWEVPRTFGGGTKLEIK
notes: chimeric mAb
B3: 113H5 chimeric antibody (antibody, V domains shown)
VH: DVQLQESGPGLVKPSQSLSLTCSVTGYSITSGYYWNWIRQFPGNKLEWMGYINSDGSNNYNPSLKNRISITRDTSKNQFFLKLNSVTTEDTATYYCAREEYDYWFAYWGQGTLVTVSA
VL: DIVMTQSQKFMSTSVGDRVSVTCKASQNVGTNVAWYQQKPGQSPKALIYSASNRYSGVPDRFTGSGFGTDFTLTISNVQSEDLTEYFCQQYNSYPYTFGGGTNLEIK
notes: chimeric mAb
B4: Hu286B4-10 (antibody, V domains shown)
VH: EVQLQESGPGLVKPSDTLSLTCAVSGYSISNNYYWNWIRQPPGKGLEWIGYITYDGSNNYNPSLKNRITMSRDTSKNQFSLKLSSVTAVDTAVYYCARGGGQLRFDYWGQGTTVTVSS
VL: SIVMTQSPSSLSASVGDRVTITCKASQSVSNEVTWYQQKPGKSPKMLIYYASNRYTGVPDRFSGSGYGTDFTFTISSLQPEDIATYFCQQDYSSPWTFGGGTKVEIK
notes: humanized
B5: 14G12 chimeric antibody (antibody, V domains shown)
VH: EVQLQQSGPELVKPGASVKISCKASGYAFSSSWMNWVKQRPGKGLEWIGRIYREDGHTNYNGKFKGKATLTADKSSTTAYMQLTSLTSEDSAVYFCANGGAMDYWGQGTSVTVSS
VL: DIQMTQSTSSLSASLGDRVTISCRASQDISNYLNWYQQKPDGTVKLLIYYTSRLHSGVPSRFSGSGSGTDYSLTISNLEQEDIATYFCQQDNTLPWTFGGGTKLEIK
notes: chimeric mAb

Key:
[1] = molecular target: T1, human 5T4 expressed on cells; assay: flow cytometry, CHOK1-hu5T4 cells
[2] = molecular target: T2, human 5T4-His protein; assay: ELISA, coated antigen
Method: (§1) ELISA testing was carried out to evaluate the binding of chimeric antibodies to human and cynomolgus, respectively. The antibody portion of naptumomab (NeoTX) that targets 5T4 (abbreviated as naptumomab in the present disclosure), was generated and used as a benchmark.
(§2) Briefly, microtiter plates were coated with human and cynomolgus 5T4 proteins at […] in PBS, 100 μl/well at 4° C. overnight, then blocked with 150 μl/well of 1% BSA. Serial dilutions of chimeric antibodies were added to each well and incubated for 1 hour at RT. The plates were washed with PBS/Tween and then incubate with mouse-anti-human IgG Fc antibody conjugated with Horse Radish Peroxidase (HRP) for 30 mins at RT. After washing, the plates were developed with TMB substrate and analyzed by spectrophotometer at OD 450 nm. All the 5T4 chimeric mAbs bound to human and cynomolgus 5T4 (FIG. 1-2 and Table 3).

[3] = molecular target: T3, cynomolgus 5T4 protein; assay: ELISA, coated antigen
Method: as §1, §2

[4] = molecular target: T2, human 5T4-His protein; assay: ELISA, coated 5T4-His
In short: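 Plates coated with human 5T4-His at 1 μg/ml overnight at 4 °C, blocked with 1% BSA, then 4-fold antibody dilutions from 20 nM incubated 1 h at 37 °C. Bound antibody detected with anti-human IgG-HRP (30 min, 37 °C) and TMB, OD 450 nm.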

[5] = molecular target: T2, human 5T4-His protein; assay: competitive ELISA, coated human 5T4, vs naptumomab-biotin
[6] = molecular target: T2, human 5T4-His protein; assay: SPR Biacore, Protein A capture
Method: The binding of the chimeric mAbs from these clones against recombinant 5T4 protein (human 5T4-his tag) was tested with Biacore using a capture method. The mAbs were captured using Protein A chip. A serial dilution of human 5T4-his tag protein was injected over captured antibody for 2-3 mins at a flow rate of 30 μl/min. The antigen was allowed to dissociate for 360-1000 s. All the experiments were carried out on a Biacore T200. Data analysis was carried out using Biacore T200 evaluation software.

[7] = molecular target: T2, human 5T4-His protein; assay: SPR Biacore, Protein A capture; remark: listed apart in the source
Method: (§3) The binding of the 393E9 humanized antibodies to recombinant 5T4 protein (human 5T4-his tag) was tested with Biacore using a capture method. The mAbs were captured using Protein A chip. A serial dilution of human 5T4-his tag protein was injected over captured antibody for 3 mins at a flow rate of 30 μl/min. The antigen was allowed to dissociate for 280-800 s. All the experiments were carried out on a Biacore T200. Data analysis was carried out using the Biacore T200 evaluation software.

[8] = molecular target: T2, human 5T4-His protein; assay: competitive ELISA, coated human 5T4, vs 159D5-biotin
[9] = molecular target: T2, human 5T4-His protein; assay: competitive ELISA, coated human 5T4, vs naptumomab-biotin; remark: listed apart in the source
[10] = molecular target: T2, human 5T4-His protein; assay: SPR Biacore, Protein A capture; remark: listed apart in the source
Method: as §3, with “286B4” for “393E9”

[11] = molecular target: T2, human 5T4-His protein; assay: ELISA, coated human 5T4
Method: (§4) To evaluate the binding activity of clones, the 286B4 chimeric antibody along with 286B4 humanized mAbs were subjected to ELISA test.
(§5) Briefly, microtiter plates were coated with human 5T4-His protein at 1 μg/ml in PBS, 100 μl/well at 4° C. overnight, then blocked with 150 μl/well of 1% BSA. 4-fold dilutions of tested antibodies starting from 20 nM were added to each well and incubated for 1 hour at 37° C. The plates were washed with PBS/Tween and then incubated with Goat Anti-Human IgG-HRP for 30 mins at 37° C. After washing, the plates were developed with TMB substrate and analyzed by spectrophotometer at OD 450 nm. As shown in FIG. 16 and Table 15, most of the humanized clones bound to human 5T4 with high potency.

[12] = molecular target: T2, human 5T4-His protein; assay: ELISA, coated 5T4-His; remark: listed apart in the source
Method: as §4, §5

[13] = molecular target: T2, human 5T4-His protein; assay: competitive ELISA, coated human 5T4, vs naptumomab-biotin; remark: listed apart in the source
[14] = molecular target: T2, human 5T4-His protein; assay: SPR Biacore, Protein A capture; remark: listed apart in the source
In short: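 Humanized 14G12 antibodies captured on a Protein A chip; serial dilutions of human 5T4-His injected for 120 s-180 s at 30 μl/min, with dissociation over 360 s-1000 s on a Biacore T200.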

| Binder | EC50 [2] | EC50 [3] | Kd [6] | koff [6] | kon [6] | other results |
| --- | --- | --- | --- | --- | --- | --- |
| B1 | 0.37 nM | 0.14 nM | 0.0565 nM | 0.000183 s⁻¹ | 3.24e+06 M⁻¹ s⁻¹ | EC50 (read off the curve) [1]: 5 nM; EC50 [4]: 0.27 nM and 0.13 nM and 0.23 nM; IC50 (read off the curve) [5]: ~5 nM; Kd [7]: 0.463 nM; koff [7]: 0.000107 s⁻¹; kon [7]: 231000 M⁻¹ s⁻¹ |
| B2 | 0.18 nM | 0.21 nM | 0.302 nM | 0.000126 s⁻¹ | 418000 M⁻¹ s⁻¹ | IC50 (read off the curve) [8]: ~9 nM |
| B3 | 0.52 nM | 0.82 nM | 0.552 nM | 0.000192 s⁻¹ | 348000 M⁻¹ s⁻¹ | IC50 (read off the curve) [9]: ~6 nM |
| B4 |  |  |  |  |  | Kd [10]: 1.93 nM; koff [10]: 0.000204 s⁻¹; kon [10]: 106000 M⁻¹ s⁻¹; EC50 (read off the curve) [11]: ~0.08 nM; EC50 [12]: 2.61 nM |
| B5 | 0.19 nM | 0.17 nM | 0.413 nM | 0.000222 s⁻¹ | 538000 M⁻¹ s⁻¹ | IC50 (read off the curve) [13]: ~4 nM; Kd [14]: 0.839 nM and 0.537 nM; koff [14]: 0.000336 s⁻¹ and 0.00033 s⁻¹; kon [14]: 401000 M⁻¹ s⁻¹ and 615000 M⁻¹ s⁻¹ |
